# The DeepSol protein solubility set
# Experiment: soluble on expression in E. coli; label from the status in PepcDB or PDB records
row,Sequence,soluble on expression in E. coli
1,MEPSGGEQEPGAVRFLDLPWEDVLLPHVLNRVPLRQLLRLQRVSRAFRSLVQLHLAGLRRFDAAQVGPQIPRAALARLLRDAEGLQELALAPCHEWLSDEDLVPVLARNPQLRSVALGGCGQLSRRALGALAEGCPRLQRLSLAHCDWVDGLALRGLADRCPALEELDLTACRQLKDEAIVYLAQRRGAGLRSLSLAVNANVGDAAVQELARNCPELHHLDLTGCLRVGSDGVRTLAEYCPVLRSLRVRHCHHVAESSLSRLRKRGVDIDVEPPLHQALVLLQDMAGFAPFVNLQV,soluble
2,MSHYGGNPRGNSSHQFGRKDFQQSDSKHIPKITGQPLPNEVQIPFDNMIYETRNPPKFEKQAKFISEYCINYDRKLQLGRMRAKKFHDKLPPNNLSLDLGKGFETFDPKEGDEKIIMLLEWINQMAPEGGRLKKVIHEADVVCWRGLITKICSTIYNKEEGWRIDAIKRKGVIFLCEEKTEQAKNRDLNQTDLDKRMSYWGHKFEQYVTLDDDAEQPDTSSPVTTKEEYAVVFRNDLQTDQRLNPEKRSIGIFYSGEVDCLDRHGNMLELKTQKGELGHGFYKYSKSFKWWLQSSLVNVDHIIVGLRTQEGHVKSLTSLRTREIPQRASWNFRAGFEFLSTIFTYILNCLEKDGDACVIEYRSEMGIHKGIQMRRVPVDEFDFVPNEFLEKFC,not soluble
3,GSHMLETEDVVRARDAHLRSILDTVPDATVVSATDGTIVSFNAAAVRQFGYAEEEVIGQNLRILMPEPYRHEHDGYLQRYMATGEKRIIGIDRVVSGQRKDGSTFPMKLAVGEMRSGGERFFTGFIRDLT,soluble
4,MGSDKIHHHHHHMIAGVPSVHPLPNMNHVEVKGVDLPAQIAQQVRKLINRGTLAPGLQLRQSDLADRFGISRVPVREALKLLAAEGIIEHDPNRGFFVAPLSTDEARQLYRYRFLLERELLKTVEWPDSTQMKALKAMLERLDSYLDSGQRAEWIDEYQDFYALLFDLSPDKILRREAIRLIRLTDRYRALASEVRVPGEQRTAHLEHTLLAAMSKRDRAQLIRGFEREREKILASMLARIDARGL,not soluble
5,MSLSEKIIQLNEGIIKEELKNLVRSSVEETLNHLLDKEAEDLTNAAKYERTQERQGYRSGHYTRSLQTTSGEVTLRVPKLKGVPFETAIIERYRRRESSVEEALIEMYLAGVSVRRVEDITEALWGTKVSPGTISELNKKAYVHIENWRNRPLQDGKYPYVYVDGIYLKRNWGGEYENVSILVAIAVNQEGYREVIGAREGMKEDKASWKEFLQWLKGRGLDGVKLIVGDKCLGMLESVNEVFPEAKYQRCTVHFYRNIFSVTPRSKMKLVAKMLKAIHAQESKASAREKAKLVAEELKSMKLREAAKKLEDGIEETLTYMEFPYEHWTRIRTNNTIERLNREIRRRTRVVGTFPDGNSALMLVCARLRHVAGTQWGSKKYLNMKHLENMDSDEGHHHHHH,soluble
6,MIGRRHPYYPYLEAALEAASLARGIHLYYLEKGFTEGTKSGPTDLVTQADREAEEAVKGLLLSRFPEAGFLGEEGGSEGGKALRFIVDPLDGTVNYAHGFPFFAVSIALEAESAIQMGVVMDTARGEVFYALRGEGAYLNGRPIRVTGRESLVGSLLATGFPYDVAKDPENLTYFERALRKGLLVRRPGAAALDLAYVAAGRLEGFWEVKLNPWDVAAGWLLVEEAGGRVTDLEGNPYRLGSRYILATNGRVHEALRRTLLGLD,soluble
7,MISIKVLFFGEACQLVGKREEAIDFPEETDYEEIRKTILENYPALQKIEKVMMLAVDQEYANPGDRFELVRFTEIAVIPPLSGG,soluble
8,MGSDKIHHHHHHMTLRARIQTAVSLVYPARCLNCGGLVESDFGLCGACWRDTTFISGLVCEGCGAPLPGEDDGQMVHCDACLRAPGEWDRGRAALVYTGQGRRLVLALKHGDRTDLVRPASAWMARAARVLLSPKPLLVPVPLHWTRLLHRRYNQSALLAQAIAAREECDCCPDALIRVAKTPMLEGYSRSERRALLSDAIRPNPRMASRLKGRRVLLVDDVMTSGSTLSACARACMDAGAKSTNVAVLARVTGS,not soluble
9,GGSGERKISRIHLVSEPSITHFLQVSWEKTLESGFVITLTDGHSAWTGTVSESEISQEADDMAMEKGKYVGELRKALLSGAGPADVYTFNFSKESCYFFFEKNLKDVSFRLGSFNLEKVENPAEVIRELICYCLDTTAKNEKSIDDLEEKVAHAKEENLNMHQMLDQTLLELNNM,soluble
10,MDNPCPTCGQELEWTGQYHCSACTVDYCKVGFCPECGSELEKLQACGAANYFCNQCNELKSKSKIRFVFQPLNGNSQLEHHHHHH,soluble
